Assay results as given in publication PMC6899042, “Perturbation of the titin/MURF1 signaling complex is associated with hypertrophic cardiomyopathy in a fish model and in human patients” (Disease Models & Mechanisms, 2019).

Target: T1, myc-tagged MURF1 (muscle-specific ring finger protein 1), full length (human, UniProt Q969Q1-1 1-353)
T1 construct: MURF1 (muscle-specific ring finger protein 1), human, full-length cDNA from bp137 to bp1198 of GenBank NM_032588, printed as aa1-aa354; Cloned into myc-tagged pCMV-Tag3. bp137-bp1198 is 354 codons, which may count the stop codon; source: COS-7 cells, transfected, in lysate (cell line named only for the A168-170 experiment)
T1 sequence (Q969Q1 whole entry, the tested form may be a part): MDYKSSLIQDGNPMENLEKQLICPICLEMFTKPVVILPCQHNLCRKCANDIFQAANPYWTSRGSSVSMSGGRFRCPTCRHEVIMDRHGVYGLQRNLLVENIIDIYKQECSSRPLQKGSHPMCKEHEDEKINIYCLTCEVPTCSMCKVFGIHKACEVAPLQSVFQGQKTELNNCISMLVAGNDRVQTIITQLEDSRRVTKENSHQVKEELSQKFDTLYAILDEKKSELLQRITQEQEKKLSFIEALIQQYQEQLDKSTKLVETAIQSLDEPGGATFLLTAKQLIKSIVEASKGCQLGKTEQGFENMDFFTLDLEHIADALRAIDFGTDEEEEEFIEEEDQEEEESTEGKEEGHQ
Assay: co-IP; GFP-tagged TTN fragment co-transfected with myc-tagged MURF1 (COS-7 cells named for A168-170); IP with anti-myc antibody (Catch and Release v2.0 Reversible Immunoprecipitation System), Western blot with anti-GFP; densitometry normalised to the input amount of GFP-TTN, WT set to 1.00 AU
Conditions: partners not purified

B1: GFP-tagged E29783V-TTN-A156 (titin Ig domain A156 with the equivalent of the medaka nsh mutation D23186V) (domain or fragment, human, UniProt Q8WZ42-11 29735-29829, looked up)
chain: LPTIDLSTMPQKTIHVPAGRPVELVIPIAGRPPPAASWFFAGSKLRESVRVTVETHTKVAKLTIRETTIRDTGEYTLELKNVTGTTSETIKVIIL
notes: numbers count on: the protein encoded by GenBank NM_133378; Cloned into pEGFP-C1; mutation made by primer-mediated mutagenesis; also called mutant-TTN-A156; nsh Ig domain
  co-precipitated amount relative to WT TTN-A156 (1.00 AU): 9.23 AU

B2: GFP-tagged S30186A-TTN-A160-161 (titin domains A160-161 with the HCM-associated mutation S30186A) (domain or fragment, human, UniProt Q8WZ42-11 30134-30326, looked up)
chain: PDYELDERYQEGIFVRQGGVIRLTIPIKGKPFPICKWTKEGQDISKRAMIATAETHTELVIKEADRGDSGTYDLVLENKCGKKAVYIKVRVIGSPNSPEGPLEYDDIQVRSVRVSWRPPADDGGADILGYILERREVPKAAWYTIDSRVRGTSLVVKGLKENVEYHFRVSAENQFGISKPLKSEEPVTPKTPL
notes: numbers count on: the protein encoded by GenBank NM_133378; Cloned into pEGFP-C1; the mutation was found in a family with HCM
  co-precipitated amount relative to WT TTN-A160-161 (1.00 AU): 3.11 AU

B3: GFP-tagged WT-TTN-A169 (titin Ig domain A169) (domain or fragment, human, UniProt Q8WZ42-11 31022-31119, looked up)
chain: PAKIHLPKTLEGMGAVHALRGEVVSIKIPFSGKPDPVITWQKGQDLIDNNGHYQVIVTRSFTSLVFPNGVERKDAGFYVVCAKNRFGIDQKTVELDVA
notes: numbers count on: the protein encoded by GenBank NM_133378; Cloned into pEGFP-C1; also called A169 domain
  co-precipitated amount relative to WT TTN-A168 (1.00 AU): 6.69 AU

B4: GFP-tagged D30994N-TTN-A168-170 (titin domains A168-A170 with the HCM-associated mutation D30994N) (domain or fragment, human, UniProt Q8WZ42-11 30928-31228, looked up)
chain: PHFKEELRNLNVRYQSNATLVCKVTGHPKPIVKWYRQGKEIIADGLKYRIQEFKGGYHQLIIASVTNDDATVYQVRATNQGGSVSGTASLEVEVPAKIHLPKTLEGMGAVHALRGEVVSIKIPFSGKPDPVITWQKGQDLIDNNGHYQVIVTRSFTSLVFPNGVERKDAGFYVVCAKNRFGIDQKTVELDVADVPDPPRGVKVSDVSRDSVNLTWTEPASDGGSKITNYIVEKCATTAERWLRVGQARETRYTVINLFGKTSYQFRVIAENKFGLSKPSEPSEPTITKEDKTRAMNYDEEV
notes: numbers count on: the protein encoded by GenBank NM_133378; Cloned into pEGFP-C1; the mutation was found in a family with HCM; also called D30994N mutant TTN-A168-170; source: COS-7 cells, transfected, in lysate
  co-precipitated amount relative to WT TTN-A168-170 (1.00 AU): 1.58 AU

B5: GFP-tagged D30994N-TTN-A168 (titin Ig domain A168 with the HCM-associated mutation D30994N) (domain or fragment, human, UniProt Q8WZ42-11 30928-31021, looked up)
chain: PHFKEELRNLNVRYQSNATLVCKVTGHPKPIVKWYRQGKEIIADGLKYRIQEFKGGYHQLIIASVTNDDATVYQVRATNQGGSVSGTASLEVEV
notes: numbers count on: the protein encoded by GenBank NM_133378; Cloned into pEGFP-C1; the mutation was found in a family with HCM; also called D30994N mutant TTN-A168
  co-precipitated amount relative to WT TTN-A168 (1.00 AU): 3.06 AU
